Results published in US20210032299A1 (Eli Lilly, published 2021).
Starred links: 1 amine or outer side, 2 acyl side, 3 side chain; linkers in the order of their positions; H or OH if unused. Non-standard residues stand in square brackets, D forms with d. Groups on a side chain read outwards from the residue. No end group written: not given here. *: point of attachment. C20 diacid = O=C(O)CCCCCCCCCCCCCCCCCCC(=O)*; C18 diacid = O=C(O)CCCCCCCCCCCCCCCCC(=O)*; γGlu = O=C(O)[C@H](CCC(=O)[*:2])N[*:1]; 4Pal = N[C@@H](Cc1ccncc1)C(=O)O; AEEA = NCCOCCOCC(=O)O; Aib = CC(C)(N)C(=O)O

T1: human glucose-dependent insulinotropic peptide receptor (human, UniProt P48546 22-466)
T1 sequence (looked up): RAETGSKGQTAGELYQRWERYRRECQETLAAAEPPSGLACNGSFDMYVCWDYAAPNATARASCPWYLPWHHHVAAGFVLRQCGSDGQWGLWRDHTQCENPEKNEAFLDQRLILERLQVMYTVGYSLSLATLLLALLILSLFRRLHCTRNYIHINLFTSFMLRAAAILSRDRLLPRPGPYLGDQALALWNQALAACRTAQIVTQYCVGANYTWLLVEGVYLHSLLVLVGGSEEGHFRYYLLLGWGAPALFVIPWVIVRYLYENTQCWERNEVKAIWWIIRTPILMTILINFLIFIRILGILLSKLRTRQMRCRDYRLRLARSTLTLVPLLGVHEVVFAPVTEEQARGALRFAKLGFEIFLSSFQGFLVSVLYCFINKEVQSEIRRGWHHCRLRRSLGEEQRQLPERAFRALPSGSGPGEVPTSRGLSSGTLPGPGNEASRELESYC

B1: Example 16 (peptide)
peptide: YXEGTFISDYSILLDKKAQXDFVEWLLAQGPSSGAPPPS
modifications: D-Ala2; K17((2-[2-(2-Amino-ethoxy)-ethoxy]-acetyl)2-(γ-Glu)-CO-(CH2)16-CO2H); Aib20; C-terminal amide
B2: Example 19 (peptide)
peptide: YXEGTFISDYSILLDKKAQXDFVNWLLAGGPSSGAPPPS
modifications: D-Ala2; K17((2-[2-(2-Amino-ethoxy)-ethoxy]-acetyl)2-(γ-Glu)-CO-(CH2)16-CO2H); Aib20; C-terminal amide
B3: Example 20 (peptide)
peptide: YXEGTFISDYSILLDKKAQXEFVNWLLAQGPSSGAPPPS
modifications: D-Ala2; K17((2-[2-(2-Amino-ethoxy)-ethoxy]-acetyl)2-(γ-Glu)-CO-(CH2)16-CO2H); Aib20; C-terminal amide
B4: Example 18 (peptide)
peptide: YXEGTFISDYSILLDKKAQXDFVNXLLAQGPSSGAPPPS
modifications: D-Ala2; K17((2-[2-(2-Amino-ethoxy)-ethoxy]-acetyl)2-(γ-Glu)-CO-(CH2)16-CO2H); Aib20; 4-Pal25; C-terminal amide
B5: Example 17 (peptide)
peptide: YXEGTFISDYSILLDKKAQXDFVNWLLEQGPSSGAPPPS
modifications: D-Ala2; K17((2-[2-(2-Amino-ethoxy)-ethoxy]-acetyl)2-(γ-Glu)-CO-(CH2)16-CO2H); Aib20; C-terminal amide
B6: Example 14 (peptide)
peptide: Y[dA]EGTFISDYSILLDKK([AEEA-AEEA-γGlu-C20 diacid])HQQDFVEWLLAQGPSSGAPPPS-NH2
modifications: N-terminus assumed
SMILES: CC[C@H](C)[C@H](NC(=O)[C@H](CO)NC(=O)[C@H](Cc1ccc(O)cc1)NC(=O)[C@H](CC(=O)O)NC(=O)[C@H](CO)NC(=O)[C@@H](NC(=O)[C@H](Cc1ccccc1)NC(=O)[C@@H](NC(=O)CNC(=O)[C@H](CCC(=O)O)NC(=O)[C@@H](C)NC(=O)[C@@H](N)Cc1ccc(O)cc1)[C@@H](C)O)[C@@H](C)CC)C(=O)N[C@@H](CC(C)C)C(=O)N[C@@H](CC(C)C)C(=O)N[C@@H](CC(=O)O)C(=O)N[C@@H](CCCCN)C(=O)N[C@@H](CCCCNC(=O)COCCOCCNC(=O)COCCOCCNC(=O)CC[C@H](NC(=O)CCCCCCCCCCCCCCCCCCC(=O)O)C(=O)O)C(=O)N[C@@H](Cc1c[nH]cn1)C(=O)N[C@@H](CCC(N)=O)C(=O)N[C@@H](CCC(N)=O)C(=O)N[C@@H](CC(=O)O)C(=O)N[C@@H](Cc1ccccc1)C(=O)N[C@H](C(=O)N[C@@H](CCC(=O)O)C(=O)N[C@@H](Cc1c[nH]c2ccccc12)C(=O)N[C@@H](CC(C)C)C(=O)N[C@@H](CC(C)C)C(=O)N[C@@H](C)C(=O)N[C@@H](CCC(N)=O)C(=O)NCC(=O)N1CCC[C@H]1C(=O)N[C@@H](CO)C(=O)N[C@@H](CO)C(=O)NCC(=O)N[C@@H](C)C(=O)N1CCC[C@H]1C(=O)N1CCC[C@H]1C(=O)N1CCC[C@H]1C(=O)N[C@@H](CO)C(N)=O)C(C)C
B7: Example 22 (peptide)
peptide: Y[Aib]EGTFISDYSILLDKK([AEEA-AEEA-γGlu-C18 diacid])HQ[Aib]DFVE[4Pal]LLAGGPSSGAPPPS-NH2
modifications: N-terminus assumed
SMILES: CC[C@H](C)[C@H](NC(=O)[C@H](CO)NC(=O)[C@H](Cc1ccc(O)cc1)NC(=O)[C@H](CC(=O)O)NC(=O)[C@H](CO)NC(=O)[C@@H](NC(=O)[C@H](Cc1ccccc1)NC(=O)[C@@H](NC(=O)CNC(=O)[C@H](CCC(=O)O)NC(=O)C(C)(C)NC(=O)[C@@H](N)Cc1ccc(O)cc1)[C@@H](C)O)[C@@H](C)CC)C(=O)N[C@@H](CC(C)C)C(=O)N[C@@H](CC(C)C)C(=O)N[C@@H](CC(=O)O)C(=O)N[C@@H](CCCCN)C(=O)N[C@@H](CCCCNC(=O)COCCOCCNC(=O)COCCOCCNC(=O)CC[C@H](NC(=O)CCCCCCCCCCCCCCCCC(=O)O)C(=O)O)C(=O)N[C@@H](Cc1c[nH]cn1)C(=O)N[C@@H](CCC(N)=O)C(=O)NC(C)(C)C(=O)N[C@@H](CC(=O)O)C(=O)N[C@@H](Cc1ccccc1)C(=O)N[C@H](C(=O)N[C@@H](CCC(=O)O)C(=O)N[C@@H](Cc1ccncc1)C(=O)N[C@@H](CC(C)C)C(=O)N[C@@H](CC(C)C)C(=O)N[C@@H](C)C(=O)NCC(=O)NCC(=O)N1CCC[C@H]1C(=O)N[C@@H](CO)C(=O)N[C@@H](CO)C(=O)NCC(=O)N[C@@H](C)C(=O)N1CCC[C@H]1C(=O)N1CCC[C@H]1C(=O)N1CCC[C@H]1C(=O)N[C@@H](CO)C(N)=O)C(C)C
B8: Example 13 (peptide)
peptide: Y[dA]EGTFISDYSILLDKK([AEEA-AEEA-γGlu-C20 diacid])HQQEFVNWLLAQGPSSGAPPPS-NH2
modifications: N-terminus assumed
SMILES: CC[C@H](C)[C@H](NC(=O)[C@H](CO)NC(=O)[C@H](Cc1ccc(O)cc1)NC(=O)[C@H](CC(=O)O)NC(=O)[C@H](CO)NC(=O)[C@@H](NC(=O)[C@H](Cc1ccccc1)NC(=O)[C@@H](NC(=O)CNC(=O)[C@H](CCC(=O)O)NC(=O)[C@@H](C)NC(=O)[C@@H](N)Cc1ccc(O)cc1)[C@@H](C)O)[C@@H](C)CC)C(=O)N[C@@H](CC(C)C)C(=O)N[C@@H](CC(C)C)C(=O)N[C@@H](CC(=O)O)C(=O)N[C@@H](CCCCN)C(=O)N[C@@H](CCCCNC(=O)COCCOCCNC(=O)COCCOCCNC(=O)CC[C@H](NC(=O)CCCCCCCCCCCCCCCCCCC(=O)O)C(=O)O)C(=O)N[C@@H](Cc1c[nH]cn1)C(=O)N[C@@H](CCC(N)=O)C(=O)N[C@@H](CCC(N)=O)C(=O)N[C@@H](CCC(=O)O)C(=O)N[C@@H](Cc1ccccc1)C(=O)N[C@H](C(=O)N[C@@H](CC(N)=O)C(=O)N[C@@H](Cc1c[nH]c2ccccc12)C(=O)N[C@@H](CC(C)C)C(=O)N[C@@H](CC(C)C)C(=O)N[C@@H](C)C(=O)N[C@@H](CCC(N)=O)C(=O)NCC(=O)N1CCC[C@H]1C(=O)N[C@@H](CO)C(=O)N[C@@H](CO)C(=O)NCC(=O)N[C@@H](C)C(=O)N1CCC[C@H]1C(=O)N1CCC[C@H]1C(=O)N1CCC[C@H]1C(=O)N[C@@H](CO)C(N)=O)C(C)C
B9: Example 15 (peptide)
peptide: Y[dA]EGTFISDYSILLDKK([AEEA-AEEA-γGlu-C20 diacid])HQQDFVNYLLAQGPSSGAPPPS-NH2
modifications: N-terminus assumed
SMILES: CC[C@H](C)[C@H](NC(=O)[C@H](CO)NC(=O)[C@H](Cc1ccc(O)cc1)NC(=O)[C@H](CC(=O)O)NC(=O)[C@H](CO)NC(=O)[C@@H](NC(=O)[C@H](Cc1ccccc1)NC(=O)[C@@H](NC(=O)CNC(=O)[C@H](CCC(=O)O)NC(=O)[C@@H](C)NC(=O)[C@@H](N)Cc1ccc(O)cc1)[C@@H](C)O)[C@@H](C)CC)C(=O)N[C@@H](CC(C)C)C(=O)N[C@@H](CC(C)C)C(=O)N[C@@H](CC(=O)O)C(=O)N[C@@H](CCCCN)C(=O)N[C@@H](CCCCNC(=O)COCCOCCNC(=O)COCCOCCNC(=O)CC[C@H](NC(=O)CCCCCCCCCCCCCCCCCCC(=O)O)C(=O)O)C(=O)N[C@@H](Cc1c[nH]cn1)C(=O)N[C@@H](CCC(N)=O)C(=O)N[C@@H](CCC(N)=O)C(=O)N[C@@H](CC(=O)O)C(=O)N[C@@H](Cc1ccccc1)C(=O)N[C@H](C(=O)N[C@@H](CC(N)=O)C(=O)N[C@@H](Cc1ccc(O)cc1)C(=O)N[C@@H](CC(C)C)C(=O)N[C@@H](CC(C)C)C(=O)N[C@@H](C)C(=O)N[C@@H](CCC(N)=O)C(=O)NCC(=O)N1CCC[C@H]1C(=O)N[C@@H](CO)C(=O)N[C@@H](CO)C(=O)NCC(=O)N[C@@H](C)C(=O)N1CCC[C@H]1C(=O)N1CCC[C@H]1C(=O)N1CCC[C@H]1C(=O)N[C@@H](CO)C(N)=O)C(C)C
B10: Example 21 (peptide)
peptide: Y[Aib]EGTFISDYSIALDKK([AEEA-AEEA-γGlu-C18 diacid])HQ[Aib]DFVE[4Pal]LLAGGPSSGAPPPS-NH2
modifications: N-terminus assumed
SMILES: CC[C@H](C)[C@H](NC(=O)[C@H](CO)NC(=O)[C@H](Cc1ccc(O)cc1)NC(=O)[C@H](CC(=O)O)NC(=O)[C@H](CO)NC(=O)[C@@H](NC(=O)[C@H](Cc1ccccc1)NC(=O)[C@@H](NC(=O)CNC(=O)[C@H](CCC(=O)O)NC(=O)C(C)(C)NC(=O)[C@@H](N)Cc1ccc(O)cc1)[C@@H](C)O)[C@@H](C)CC)C(=O)N[C@@H](C)C(=O)N[C@@H](CC(C)C)C(=O)N[C@@H](CC(=O)O)C(=O)N[C@@H](CCCCN)C(=O)N[C@@H](CCCCNC(=O)COCCOCCNC(=O)COCCOCCNC(=O)CC[C@H](NC(=O)CCCCCCCCCCCCCCCCC(=O)O)C(=O)O)C(=O)N[C@@H](Cc1c[nH]cn1)C(=O)N[C@@H](CCC(N)=O)C(=O)NC(C)(C)C(=O)N[C@@H](CC(=O)O)C(=O)N[C@@H](Cc1ccccc1)C(=O)N[C@H](C(=O)N[C@@H](CCC(=O)O)C(=O)N[C@@H](Cc1ccncc1)C(=O)N[C@@H](CC(C)C)C(=O)N[C@@H](CC(C)C)C(=O)N[C@@H](C)C(=O)NCC(=O)NCC(=O)N1CCC[C@H]1C(=O)N[C@@H](CO)C(=O)N[C@@H](CO)C(=O)NCC(=O)N[C@@H](C)C(=O)N1CCC[C@H]1C(=O)N1CCC[C@H]1C(=O)N1CCC[C@H]1C(=O)N[C@@H](CO)C(N)=O)C(C)C

Assays:
Experiment in all cases: cell-based or functional assay
human glucagon receptor = human glucagon receptor (human, UniProt P47871 26-477)
[1] = molecular target: T1, human glucose-dependent insulinotropic …
human GLP-1 receptor = human GLP-1 receptor (human, UniProt P43220 24-463)

Chain of human glucagon receptor (P47871 26-477): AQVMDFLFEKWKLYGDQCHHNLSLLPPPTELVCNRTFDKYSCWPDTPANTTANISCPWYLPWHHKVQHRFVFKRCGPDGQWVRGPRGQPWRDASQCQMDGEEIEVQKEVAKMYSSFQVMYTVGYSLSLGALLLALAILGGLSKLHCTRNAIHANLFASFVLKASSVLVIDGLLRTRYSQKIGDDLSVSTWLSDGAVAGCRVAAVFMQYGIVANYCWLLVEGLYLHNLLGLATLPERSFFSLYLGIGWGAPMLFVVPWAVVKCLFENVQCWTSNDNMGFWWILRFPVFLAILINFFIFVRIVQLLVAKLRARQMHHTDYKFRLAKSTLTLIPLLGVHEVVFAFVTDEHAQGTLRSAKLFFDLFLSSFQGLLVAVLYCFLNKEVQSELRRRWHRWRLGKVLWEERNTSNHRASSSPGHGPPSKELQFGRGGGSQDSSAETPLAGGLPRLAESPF

Binder | hGcgR cAMP Rel EC50 (human glucagon receptor) [nM] | hGIPR cAMP Rel EC50 [1] [nM] | hGLP1R cAMP Rel EC50 (human GLP-1 receptor) [nM]
B1 | > 5000 | 0.00937 | > 5000
B2 | > 5000 | 0.00992 | > 5000
B3 | > 5000 | 0.00933 | > 5000
B4 | > 5000 | 0.00656 | > 5000
B5 | > 5000 | 0.0135 | > 5000
B6 | > 5000 | 0.34 | > 100
B7 | 1250 | 0.0345 | > 5000
B8 | > 5000 | 0.129 | > 100
B9 | > 5000 | 0.282 | > 100
B10 | > 5000 | 0.291 | > 5000
